Literature values as cited in article PMC6705211.
Where two headings read alike, the source gives them in different places. One block for each substance: values may come before it.

Legend:
H3K9me3 [1] = molecular target: H3K9me3 (UniProt P68431)
H3K9me3 [2] = molecular target: H3K9me3 (UniProt P68431); remark: listed apart in the source
H3K9me3 [3] = molecular target: H3K9me3 (UniProt P68431); remark: listed apart in the source
H3K9me3 [4] = molecular target: H3K9me3 (UniProt P68431); remark: listed apart in the source

Sequence of HP1β (P83916 whole entry): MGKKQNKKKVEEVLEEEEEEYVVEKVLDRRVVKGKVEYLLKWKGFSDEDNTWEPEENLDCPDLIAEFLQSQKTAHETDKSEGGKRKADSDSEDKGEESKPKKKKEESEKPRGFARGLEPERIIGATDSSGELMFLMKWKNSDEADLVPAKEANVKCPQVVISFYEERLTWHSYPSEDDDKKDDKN
Sequence of HP1a chromodomain (P05205 24-82): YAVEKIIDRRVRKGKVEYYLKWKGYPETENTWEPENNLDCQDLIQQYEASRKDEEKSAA
Sequence of HP1γ (Q13185 2-183): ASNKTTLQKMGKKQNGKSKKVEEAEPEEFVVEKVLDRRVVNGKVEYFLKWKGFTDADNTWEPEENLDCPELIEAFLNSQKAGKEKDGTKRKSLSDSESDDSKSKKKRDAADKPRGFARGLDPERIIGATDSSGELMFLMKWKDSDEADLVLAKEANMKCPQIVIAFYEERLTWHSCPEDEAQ
Sequence of HP1α chromodomain (P45973 20-78): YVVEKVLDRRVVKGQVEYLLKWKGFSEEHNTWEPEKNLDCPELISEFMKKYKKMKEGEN

Kd (H3K9me3 [1]): 13 µM
Substance: HP1α chromodomain (from UniProt P45973)

Kd (H3K9me3 [2]): 7 µM
Substance: HP1γ (from UniProt Q13185)

Kd (H3K9me3 [3]): 3000 nM
Substance: HP1β (from UniProt P83916)

Kd (H3K9me3 [4]): 4 µM
Substance: HP1a chromodomain (from UniProt P05205)
